The target in assay [1] is NirD (purified, untagged) (Escherichia coli) (UniProt P0A9I8). The assay can be described thus: BLI; biotinylated NirD or NirD^E50K on streptavidin biosensors, RelA^N-terminal as analyte (up to 30 µM); BLItz, 25°C; 50 mM Tris-HCl pH 8.0, 500 mM NaCl, 500 mM KCl, 2 mM β-mercaptoethanol, 2% glycerol; KD from steady-state responses, one site model. For orientation: Biolayer interferometry detects binding as a change in optical thickness at a sensor tip.

In assay [2] the target is T1, RelA^N-terminal (purified RelA catalytic domains) (Escherichia coli).
T1 sequence (P0AG20 whole entry, looked up): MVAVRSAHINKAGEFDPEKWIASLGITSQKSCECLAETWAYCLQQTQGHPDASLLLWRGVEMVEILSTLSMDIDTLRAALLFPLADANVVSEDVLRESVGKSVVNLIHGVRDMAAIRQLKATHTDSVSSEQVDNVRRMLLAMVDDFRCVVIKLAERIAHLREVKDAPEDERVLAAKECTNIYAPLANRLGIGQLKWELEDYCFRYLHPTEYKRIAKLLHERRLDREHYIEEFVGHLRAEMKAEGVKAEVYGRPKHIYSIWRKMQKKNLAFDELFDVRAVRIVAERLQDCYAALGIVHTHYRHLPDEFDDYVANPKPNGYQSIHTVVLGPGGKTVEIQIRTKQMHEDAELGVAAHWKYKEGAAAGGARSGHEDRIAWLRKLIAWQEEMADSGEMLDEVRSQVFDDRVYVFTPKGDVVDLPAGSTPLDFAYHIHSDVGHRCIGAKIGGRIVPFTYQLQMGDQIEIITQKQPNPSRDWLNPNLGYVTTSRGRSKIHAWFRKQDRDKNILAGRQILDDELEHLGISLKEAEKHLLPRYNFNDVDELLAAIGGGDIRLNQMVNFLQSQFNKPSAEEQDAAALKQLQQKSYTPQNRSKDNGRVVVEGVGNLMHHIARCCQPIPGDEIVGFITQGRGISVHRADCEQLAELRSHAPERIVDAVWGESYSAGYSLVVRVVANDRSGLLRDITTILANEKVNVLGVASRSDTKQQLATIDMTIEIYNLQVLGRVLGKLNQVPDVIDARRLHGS

Assay [3] has the same target. The assay can be described thus: ITC; RelA^N-terminal (30 µM) in the cell, NirD or NirD^E50K (300 µM) in the syringe; 25°C; 50 mM Tris-HCl pH 8.0, 500 mM NaCl, 500 mM KCl, 2 mM β-mercaptoethanol, 2% glycerol; One Set of Sites model.

The values that follow come from paper PMC8321558.

As for “RelA^N-terminal (purified RelA catalytic domains) (domain or fragment)”, in assay [1], the Kd (in general, the constant that tells how readily two partners part at equilibrium) came out at 0.55 µM.

B1: NirD (purified, untagged) (natural protein)
chain: MSQWKDICKIDDILPETGVCALLGDEQVAIFRPYHSDQVFAISNIDPFFESSVLSRGLIAEHQGELWVASPLKKQRFRLSDGLCMEDEQFSVKHYEARVKDGVVQLRG
modifications: biotinylated with EZ-Link NHS-PEG4-Biotin for the biolayer interferometry only
With B1, the in vitro pppGpp synthesis by 1 µM RelA^N-terminal with 4 µM NirD: percent of GTP converted to pppGpp within 60 min (80% without NirD) in assay [2] stood at 30%. In assay [3], this molecule came in with a Kd of 0.34 µM and a dH of -15.2 kJ/mol.
